Patent publication US7264809B1, “Methods of inhibiting platelet activation and recruitment” (Immunex Corporation, priority 1998, dated 2007)

How the values were obtained:
[1] = Murine model of stroke (middle cerebral artery occlusion); format: in vivo, mice
Description: Anesthetized mice were maintained at 37±2° C. during and for 90 min following surgery. A midline neck incision was made and the right carotid artery exposed. Middle cerebral artery occlusion was accomplished by advancing a 13-mm heat-blunt tipped 6-0 nylon suture via an arteriotomy in the external carotid stump. The external carotid artery was cauterized to secure hemostasis, and arterial flow reestablished. […] Surgical staples were used for wound closure. […]

murine platelets = experiment: Ex vivo aggregation of murine platelets; format: in vivo, C57BL/6J mice; conditions: PRP 1 hour after soluble CD39 4 mg/kg or aspirin 5 mg/kg
Description: C57BL/6J mice (6-8 wk) were obtained from Jackson Laboratories (Bar Harbor, Me.). […] 80 μL of 3.8% trisodium citrate was added to each mL of blood. […] The PRP contained 400-700×10^3 platelets per μL. All experiments were completed within 2 hours of blood collection. PRP (200 μL) was preincubated, for 3 min. at 37° C., with 100 μL Tris-buffered saline buffer ([…], 5 mM glucose, pH 7.4) in an aggregometer cuvette (Lumiaggregometer; Chrono-Log, Havertown, Pa.), and the platelet agonists ADP, collagen, or sodium arachidonate were added at the final concentrations indicated.

platelets [2] = experiment: Platelet aggregation in human platelet-rich plasma; format: cell-based
Description: After obtaining informed consent from volunteers, blood was collected via plastic tubing using acid citrate-dextrose (38 mM citric acid; 75 mM sodium citrate; 135 mM glucose) as anticoagulant. Where indicated, volunteers had ingested 650 mg acetylsalicylic acid (ASA) 18 h prior to blood donation. […] The stock suspension of PRP was maintained at room temperature under 5% CO2-air. […] Total volumes were adjusted to 300 μl with TSG buffer (Marcus et al., J. Clin. Invest. 88:1690, 1991; Marcus et al., J. Clin. Invest. 99:1351, 1997). […] A mock-treated sample was also prepared in which the FSBA solution was replaced with water. After incubating at 37° for 90 min., the samples were centrifuged in a Centricon-10 filter unit (Amicon Corp.) for 1 hour at 5,500 rpm and buffer exchanged into PBS to remove unreacted material.

platelets [3] = experiment: Ex vivo additive inhibition of platelet aggregation in patient platelet rich plasma; format: cell-based, human; conditions: patient PRP, no SolCD39
[4] = Phosphate release assay for ATPase activity; format: biochemical; conditions: 100 μL of 10-fold concentrated CM from COS-1 transfectants; 10× buffer with 30 mM cold ATP
[5] = Phosphate release assay for ATPase activity; format: biochemical; conditions: for ATPase activity, CPM × 10^3 (net counts): Table 3, 5-day 1× COS-1 sups; for ATPase activity, CPM Release × 10^3 (net counts): unconcentrated COS-1 CM
Description: This example describes an ATPase assay that may be used to track enzyme activity. Samples (approximately 100 μl of either concentrated CM or purified polypeptide) are combined with 20 μl of 10× assay buffer (200 mM HEPES, 1.2 M NaCl, 50 mM KCl, 15 mM CaCl2, 15 mM MgCl2 and 3 mM ATP) and sterile water is added to a final volume of 200 μl. Radiolabeled ATP (0.8 μCi γ [^32P] ATP; Amersham, Arlington Heights, Ill.) is added and the mixture incubated for 20 minutes at 37° C. […] After centrifugation (14K rpm for 10 minutes), the supernatant is assayed for free ^32P using a scintillation counter. Data are expressed as raw counts or net counts, or as picomoles of ATP degraded per minute. […] The transfections were repeated and the CM (10, 20 and 30 μL, unconcentrated) was assayed essentially as described in Example 7. […] ATPase levels in CM from COS-1 cells transfected with pIL2LFlagSolCD39 increased with time in culture over at least 4 days post-transfection. To determine whether activity was affected by removal of the N-terminal FLAG® tag, COS-1 cells were transfected with pIL2LFlagSolCD39 and pIL2LSolCD39 and supernatants (sups) were harvested after 5 days. Samples of 10, 20 and 30 μL of 1× sups were assayed for ATPase activity as described in Example 7. […] The expression of Trim1 and Trim2 constructs was analyzed in COS-1 cells cultured in 10 cm plates. After 5 days of incubation, 1× supernatants were examined via ELISA (using anti-CD39) and the phosphate-release assay described in Example 7. […] Expression levels, however, appeared to be reduced 3-4 fold.

[6] = Enzymatic (ATPase and ADPase) activity of site-directed mutants; format: biochemical
Description: Mutants were assayed for enzymatic (ATPase and ADPase) and platelet inhibitory (dose-dependent inhibition of platelet aggregation) activities. For one series of mutants, residues within the conserved apyrase regions were replaced with alanine.

For `CC(=O)Oc1ccccc1C(=O)O` [Aspirin, acetylsalicylic acid, reference compound], the “postischemic cerebral perfusion / blood flow” value ([1]; 24 hours after stroke induction) was “no improvement”, the intracerebral hemorrhage ([1]; following stroke, spectrophotometric) was “increased” and the cerebral infarct volume ([1]; preoperative administration, aspirin 5 mg/kg) was “not statistically significant”. The “ex vivo platelet aggregation, collagen” value (murine platelets; 2.5 μg/ml collagen) was “strongly aggregated”, the “ex vivo platelet aggregation, ADP” value (murine platelets; 10 μM ADP) was “strongly aggregated” and the “ex vivo platelet aggregation, arachidonate” value (murine platelets; 0.1 mM sodium arachidonate) was “blocked”.

In the case of `COc1ccc2c(c1)c(CC(=O)O)c(C)n2C(=O)c1ccc(Cl)cc1` [indomethacin, reference compound], the “platelet responsiveness to 5 μM ADP” value (platelets [2]; PRP with or without 10 μM indomethacin, CM containing solCD39 from COS-1 and CHO cells) is reported as “partial reversal”.

B1: Abciximab: platelet-specific chimeric antibody, glycoprotein IIb/IIIa antagonist, trade name ReoPro (antibody, chains of the INN, looked up, V domains shown)
VH: EVQLQQSGTVLARPGASVKMSCEASGYTFTNYWMHWVKQRPGQGLEWIGAIYPGNSDTSYIQKFKGKAKLTAVTSTTSVYMELSSLTNEDSAVYYCTLYDGYYVFAYWGQGTLVTVSA
VL: EIVLTQSPVTLSVTPGDSVSLSCRASRDISNNLHWFQQTSHESPRLLIKYASQSMSGIPSRFSGSGSGTDFTLSINSVETEDFGMYFCQQTNSWPYTFGGGTKLEIK
modifications: Fab
notes: platelet-specific chimeric antibody, glycoprotein IIb/IIIa antagonist, trade name ReoPro
In the case of B1, the “Platelet aggregation, baseline” value (platelets [3]; ADP, clopidogrel, ticlopidine, abciximab groups also received aspirin) is reported as 0 ± 0 arbitrary units, the “Platelet aggregation, baseline” value (platelets [3]; Collagen) is reported as 0 ± 0 arbitrary units and the “Platelet aggregation, baseline” value (platelets [3]; TRAP) is reported as 46 ± 6 arbitrary units.

B2: pIL2LFlagSolCD39: N-terminally FLAG-tagged solCD39 with human proinsulin/IL2 leader and 12 mature IL2 residues (SEQ ID NO:25) (protein)
chain: MALWIDRMQLLSCIALSLALVTNSAPTSSSTKKTQLTSSGDYKDDDDKTQNKALPENVKYGIVLDAGSSHTSLYIYKWPAEKENDTGVVHQVEECRVKGPGISKFVQKVNEIGIYLTDCMERAREVIPRSQHQETPVYLGATAGMRLLRMESEELADRVLDVVERSLSNYPFDFQGARIITGQEEGAYGWITINYLLGKFSQKTRWFSIVPYETNNQETFGALDLGGASTQVTFVPQNQTIESPDNALQFRLYGKDYNVYTHSFLCYGKDQALWQKLAKDIQVASNEILRDPCFHPGYKKVVNVSDLYKTPCTKRFEMTLPFQQFEIQGIGNYQQCHQSILELFNTSYCPYSQCAFNGIFLPPLQGDFGAFSAFYFVMKFLNLTSEKVSQEKVTEMMKKFCAQPWEEIKTSYAGVKEKYLSEYCFSGTYILSLLLQGYHFTADSWEHIHFIGKIQGSDAGWTLGYMLNLTNMIPAEQPLSTPLSHST
modifications: CDS (1)..(1461)
In the case of B2, the “ATPase activity, CPM Release × 10^3 (raw counts)” value [4] is reported as 99.96 CPM × 10^3, the “ATPase activity, CPM × 10^3 (net counts)” value ([5]; 10 μL) is reported as 23.6 CPM × 10^3 and the “ATPase activity, CPM × 10^3 (net counts)” value ([5]; 20 μL) is reported as 40.2 CPM × 10^3. For the same molecule, the “ATPase activity, CPM × 10^3 (net counts)” value ([5]; 30 μL) was 54.4 CPM × 10^3, the “ATPase activity, CPM Release × 10^3 (net counts)” value ([5]; 10 μL) was 24.71 CPM × 10^3 and the “ATPase activity, CPM Release × 10^3 (net counts)” value ([5]; 20 μL) was 43.92 CPM × 10^3. For the same molecule, the “ATPase activity, CPM Release × 10^3 (net counts)” value ([5]; 30 μL) was 56.93 CPM × 10^3.

B3: E174A: CD39 mutant, Glutamate174 replaced with alanine (protein, UniProt P49961 1-510, looked up, variant E174A)
Ectonucleoside triphosphate …: MEDTKESNVKTFCSKNILAILGFSSIIAVIALLAVGLTQNKALPENVKYGIVLDAGSSHTSLYIYKWPAEKENDTGVVHQVEECRVKGPGISKFVQKVNEIGIYLTDCMERAREVIPRSQHQETPVYLGATAGMRLLRMESEELADRVLDVVERSLSNYPFDFQGARIITGQEAGAYGWITINYLLGKFSQKTRWFSIVPYETNNQETFGALDLGGASTQVTFVPQNQTIESPDNALQFRLYGKDYNVYTHSFLCYGKDQALWQKLAKDIQVASNEILRDPCFHPGYKKVVNVSDLYKTPCTKRFEMTLPFQQFEIQGIGNYQQCHQSILELFNTSYCPYSQCAFNGIFLPPLQGDFGAFSAFYFVMKFLNLTSEKVSQEKVTEMMKKFCAQPWEEIKTSYAGVKEKYLSEYCFSGTYILSLLLQGYHFTADSWEHIHFIGKIQGSDAGWTLGYMLNLTNMIPAEQPLSTPLSHSTYVFLMVLFSLVLFTVAIIGLLIFHKPSYFWKDMV
With B3 the “enzymatic activity of mutant” value ([6]; alanine replacement in conserved apyrase region) was “completely devoid” and the “effect on platelet responsiveness” value (platelets [2]; mutant) was “no effect”.

B4: S218A: CD39 mutant, Serine218 replaced with alanine (protein, UniProt P49961 1-510, looked up, variant S218A)
Ectonucleoside triphosphate …: MEDTKESNVKTFCSKNILAILGFSSIIAVIALLAVGLTQNKALPENVKYGIVLDAGSSHTSLYIYKWPAEKENDTGVVHQVEECRVKGPGISKFVQKVNEIGIYLTDCMERAREVIPRSQHQETPVYLGATAGMRLLRMESEELADRVLDVVERSLSNYPFDFQGARIITGQEEGAYGWITINYLLGKFSQKTRWFSIVPYETNNQETFGALDLGGAATQVTFVPQNQTIESPDNALQFRLYGKDYNVYTHSFLCYGKDQALWQKLAKDIQVASNEILRDPCFHPGYKKVVNVSDLYKTPCTKRFEMTLPFQQFEIQGIGNYQQCHQSILELFNTSYCPYSQCAFNGIFLPPLQGDFGAFSAFYFVMKFLNLTSEKVSQEKVTEMMKKFCAQPWEEIKTSYAGVKEKYLSEYCFSGTYILSLLLQGYHFTADSWEHIHFIGKIQGSDAGWTLGYMLNLTNMIPAEQPLSTPLSHSTYVFLMVLFSLVLFTVAIIGLLIFHKPSYFWKDMV
For B4, the ADPase activity retained ([6]; mutant) was “less than 10%”.

B5: pIL2LTrim1: huIL2 leader joined to solCD39 with an intervening alanine residue (SEQ ID NO:27) (protein)
chain: MALWIDRMQLLSCIALSLALVTNSATQNKALPENVKYGIVLDAGSSHTSLYIYKWPAEKENDTGVVHQVEECRVKGPGISKFVQKVNEIGIYLTDCMERAREVIPRSQHQETPVYLGATAGMRLLRMESEELADRVLDVVERSLSNYPFDFQGARIITGQEEGAYGWITINYLLGKFSQKTRWFSIVPYETNNQETFGALDLGGASTQVTFVPQNQTIESPDNALQFRLYGKDYNVYTHSFLCYGKDQALWQKLAKDIQVASNEILRDPCFHPGYKKVVNVSDLYKTPCTKRFEMTLPFQQFEIQGIGNYQQCHQSILELFNTSYCPYSQCAFNGIFLPPLQGDFGAFSAFYFVMKFLNLTSEKVSQEKVTEMMKKFCAQPWEEIKTSYAGVKEKYLSEYCFSGTYILSLLLQGYHFTADSWEHIHFIGKIQGSDAGWTLGYMLNLTNMIPAEQPLSTPLSHST
In the case of B5, the “Activity (pmol ATP/min/μg) × 10^3” value ([5]; specific activity in COS-1 CM, concentration by ELISA) is reported as 8.38 (pmol ATP/min/μg) × 10^3.
